Measured values taken from patent publication US8030043B2, “β-galactoside-α2,3-sialyltransferase, a gene encoding thereof, and a method for producing thereof” (Japan Tobacco Inc., priority 2005, dated 2011).
Numbering of substitutions follows the chain as printed.

Legend:
Assay type in all cases: biochemical
[1] = system: β-galactoside-α2,3-sialyltransferase from Photobacterium phosphoreum JT-ISH-467; experiment: Determination of binding mode of sialic acid using pyridylaminated sugar chain, HPLC; conditions: acceptor 2.0 μM, CMP-NeuAc 5.7 μM, enzyme 20 mU/ml, pH 6.0, 25° C., 3 hours
Description: (§1) Using the enzyme obtained in Example 2, the enzymatic reaction was carried out using a pyridylaminated sugar chain as a glycosyl acceptor substrate. The pyridylaminated sugar chain used for analysis was pyridylaminated lactose (Galβ1-4Glc-PA, Takara Bio Inc., Japan). The glycosyl acceptor substrate, CMP-NeuAc and the enzyme were dissolved at 2.0 μM, 5.7 μM and 20 mU/ml, respectively, in 25 μl of 20 mM cacodylate buffer (pH 6.0), and then reacted at 25° C. for 3 hours. After the reaction, the reaction solution was treated at 100° C. for 2 minutes to inactivate the enzyme, followed by HPLC to analyze the reaction product.
The HPLC system used was Shimadzu LC10A (Shimadzu Corporation, Japan) and the analytical column used was Takara PALPAK Type R (Takara Bio Inc., Japan). The column which had been equilibrated with 100 mM acetate-triethylamine (pH 5.0) containing 0.15% N-butanol was injected with the reaction solution diluted with Eluent A (100 mM acetate-triethylamine, pH 5.0). […] The analysis was performed under the following conditions: flow rate: 1 ml/min, column temperature: 40° C., detection: fluorescence (Ex: 320 nm, Em: 400 nm).

[2] = Confirmation of α2,3 sialyltransferase activity of E. coli-expressed enzyme with pyridylaminated lactose, HPLC; conditions: pyridylaminated lactose 2.0 μM, CMP-sialic acid 5.7 μM, pH 6.0, 25° C., 6 hours
Description: as §1
The HPLC system used was Shimadzu LC10A (Shimadzu Corporation, Japan) and the analytical column used was Takara PALPAK Type R (Takara Bio Inc., Japan). The column which had been equilibrated with 100 mM acetate-triethylamine (pH 5.0) containing 0.15% N-butanol was injected with the reaction solution diluted with Eluent A (100 mM acetate-triethylamine, pH 5.0). For elution of the pyridylaminated sugar chain, Eluent A (100 mM acetate-triethylamine, pH 5.0) and Eluent B (100 mM acetate-triethylamine containing 0.5% n-butanol, pH 5.0) were used to successively elute the pyridylaminated sugar chain with a linear gradient of 30% to 100% Eluent B (0 to 35 minutes) and then 100% Eluent B (35 to 50 minutes). The analysis was performed under the following conditions: flow rate: 1 ml/min, column temperature: 40° C., detection: fluorescence (Ex: 320 nm, Em: 400 nm).
As in the case of Example 3, pyridylaminated lactose (Galβ1-4Glc-PA, PA-Sugar Chain 026, Takara Bio Inc., Japan) was used as a glycosyl acceptor to carry out the enzymatic reaction. After the reaction, the reaction solution was heated at 95° C. for 5 minutes to inactivate the enzyme, followed by HPLC analysis. It should be noted that the enzymatic reaction was accomplished at 25° C. for 6 hours using pyridylaminated lactose and CMP-sialic acid dissolved at 2.0 μM and 5.7 μM, respectively, in 25 μl of 20 mM cacodylate buffer (pH 6.0) (Reaction 1). On the other hand, a control experiment (Reaction 2) was carried out using a reaction solution free from CMP-sialic acid. Further, to clarify the retention time of standards, the crude enzyme solution was inactivated by thermal treatment (95° C., 5 minutes) and tested in the presence of pyridylaminated lactose and pyridylaminated α2,3-sialyllactose (pyridylaminated 3′-sialyllactose) (Neu5Acα2-3Galβ1-4Glc-PA, PA-Sugar Chain 029, Takara Bio Inc., Japan).

[3] = Sialyltransferase activity in E. coli homogenate (crude enzyme solution), transfer of 14C-NeuAc from CMP-NeuAc to lactose; conditions: lactose acceptor; for Radioactivity (cpm) Average: average of duplicate; for Sialyltransferase activity in crude enzyme solution (in words): CMP-14C-NeuAc donor
Description: Sialyltransferase activity was measured as described in J. Biochem., 120, pp. 104-110 (1996) (which is hereby incorporated by reference in its entirety). More specifically, the enzymatic reaction was accomplished by using CMP-NeuAc (70 nmol, containing 25000 cpm CMP-NeuAc in which NeuAc was labeled with ^14C, 356 cpm/nmol; NeuAc represents N-acetylneuraminic acid) as a glycosyl donor substrate, lactose (1.25 μmol) as a glycosyl acceptor substrate, NaCl added to give a concentration of 0.5 M, and the enzyme-containing reaction solution (30 μl) prepared as described above. The enzymatic reaction was carried out at 25° C. for 10 to 30 minutes. After completion of the reaction, 1.97 ml of 5 mM phosphate buffer (pH 6.8) was added to the reaction solution, which was then applied to a Dowex 1×8 (PO4^3− form, 0.2×2 cm, BIO-RAD) column. The radioactivity was measured for the reaction product, i.e., sialyllactose contained in the eluate (0 to 2 ml) from this column to calculate the enzyme activity.
An induction experiment of protein expression was performed on the two 467-N0C0 clones and the three 467-N2C0 clones obtained in (4) above. A single colony of E. coli TB1 having the expression vector pTrc99A carrying each clone was inoculated into LB medium (5 ml) containing an antibiotic, ampicillin (final concentration 100 μg/mL), and pre-cultured at 30° C. to about A600=0.5, followed by addition of IPTG (isopropyl-β-D(−)-thiogalactopyranoside, Wako Pure Chemical Industries, Ltd. Japan) at a final concentration of 1 mM. After culturing with shaking at 30° C. for an additional 4 hours, the cells in 2 ml culture solution were collected by centrifugation. These cells were suspended in 200 μl of 20 mM BisTris buffer (pH 7.0) containing 0.336% Triton X-100 and 0.5 M sodium chloride, and ultrasonically homogenized under ice cooling. The resulting homogenate was defined as a crude enzyme solution and provided for activity measurement. The reaction was carried out in duplicate, and the reaction composition was the same as shown in Example 1, except that the reaction time was set to 15 hours.
In the same manner as shown in Example 5(5), an induction experiment of protein expression was performed on 2 clones, i.e., the first clone of ISH224-N0C0 and the first clone of ISH224-N1C0 to measure their enzyme activity.
In the same manner as shown in Example 5(5), an induction experiment of protein expression was performed on 3 clones, i.e., the first clone of FAJ-N0C0 as well as the first and second clones of FAJ-N1C0 to measure their enzyme activity.

[4] = JT-ISH-467 gene clones, 25° C., reaction time 15 hours
[5] = JT-FAJ-16 gene clones, as Example 5(5)

OC[C@@H](O)[C@@H](O[C@@H]1O[C@H](CO)[C@H](O)[C@H](O)[C@H]1O)[C@H](O)[C@@H](O)CNc1ccccn1 [PA-Sugar Chain 026, pyridylaminated lactose]
Reaction product from pyridylaminated sugar chain (binding mode of sialic acid) [1]: pyridylaminated α2,3-sialyllactose (pyridylaminated 3′-sialyllactose) was synthesized

B1: ISH467-N0C0 first clone: E. coli-expressed full-length JT-ISH-467 sialyltransferase with Asn to Ser change at position 190 of SEQ ID NO: 2 (protein, listed as Photobacterium phosphoreum)
chain: MFVFCKKIFFLIFISLMILGGCNSDSKHNNSDGNITKNKTIEVYVDRATLPTIQQMTQIINENSNNKKLISWSRYPINDETLLESINGSFFKNRPELIKSLDSMILTNEIKKVIINGNTLWAVDVVNIIKSIEALGKKTEIELNFYDDGSAEYVRLYDFSRLPESEQEYKISLSKDNIQSSINGTQPFDSSIENIYGFSQLYPTTYHMLRADIFETNLPLTSLKRVISNNIKQMKWDYFTTFNSQQKNKFYNFTGFNPEKIKEQYKASPHENFIFIGTNSGTATAEQQIDILTEAKKPDSPIITNSIQGLDLFFKGHPSATYNQQIIDAHNMIEIYNKIPFEALIMTDALPDAVGGMGSSVFFSLPNTVENKFIFYKSDTDIENNALIQVMIELNIVNRNDVKLISDLQ
α2,3 sialyltransferase activity (formation of pyridylaminated α2,3-sialyllactose) [2]: found to have α2,3 sialyltransferase activity | Radioactivity (cpm) Round 1 [3, 4]: 8496 cpm | Radioactivity (cpm) Round 2 [3, 4]: 7486 cpm | Radioactivity (cpm) Average [3, 4]: 7991 cpm | Sialyltransferase activity in crude enzyme solution (in words) [3]: sialyltransferase activity in both crude enzyme solutions

B2: ISH467-N0C0 second clone: E. coli-expressed full-length JT-ISH-467 sialyltransferase, nucleotide sequence of SEQ ID NO: 1, no change (protein, listed as Photobacterium phosphoreum)
chain: B1 chain with S190N
modifications: CDS (1)..(1230) /gene=“467-23ST” /product=“Beta-galactoside- alpha 2,3-sialyltransferase”
α2,3 sialyltransferase activity (formation of pyridylaminated α2,3-sialyllactose) [2]: found to have α2,3 sialyltransferase activity | Radioactivity (cpm) Round 1 [3, 4]: 7097 cpm | Radioactivity (cpm) Round 2 [3, 4]: 7809 cpm | Radioactivity (cpm) Average [3, 4]: 7453 cpm | Sialyltransferase activity in crude enzyme solution (in words) [3]: sialyltransferase activity in both crude enzyme solutions

B3: ISH467-N2C0 first clone: JT-ISH-467 sialyltransferase lacking signal peptide region, Phe replaced by Ser at position 159 (protein, listed as Photobacterium phosphoreum)
chain: B1 chain with F159S, S190N
modifications: lacks signal peptide; cited entry is nucleotide; CDS (1)..(1230) /gene=“467-23ST” /product=“Beta-galactoside- alpha 2,3-sialyltransferase”
α2,3 sialyltransferase activity (formation of pyridylaminated α2,3-sialyllactose) [2]: had α2,3 sialyltransferase activity | Radioactivity (cpm) Round 1 [3, 4]: 10514 cpm | Radioactivity (cpm) Round 2 [3, 4]: 9033 cpm | Radioactivity (cpm) Average [3, 4]: 9773.5 cpm | Sialyltransferase activity in crude enzyme solution (in words) [3]: sialyltransferase activity was also observed

B4: FAJ-N0C0 first clone: E. coli-expressed full-length JT-FAJ-16 sialyltransferase, nucleotides 1 to 1209 of SEQ ID NO: 30 (protein, listed as Vibrio sp.)
chain: MKNIITKRMLIILSSLFTIIGCNNDNSTTTNNNAIEIYVDRATLPTIQQMTKIVSQKTSNKKLISWSRYPITDKSLLKKINAEFFKEQFELTESLKNIILSENIDNLIIHGNTLWSIDVVDIIKEVNLLGKNIPIELHFYDDGSAEYVRIYEFSKLPESEQKYKTSLSKNNIKFSIDGTDSFKNTIENIYGFSQLYPTTYHMLRADIFDTTLKINPLRELLSNNIKQMKWDYFKDFNYKQKDIFYSLTNFNPKEIQEDFNKNSNKNFIFIGSNSATATAEEQINIISEAKKENSSIITNSISDYDLFFKGHPSATFNEQIINAHDMIEINNKIPFEALIMTGILPDAVGGMGSSVFFSIPKEVKNKFVFYKSGTDIENNSLIQVMLKLNLINRDNIKLISDI
modifications: CDS (1)..(1209) /gene=“FAJ16-23ST” /product=“Beta-galactoside- alpha 2,3-sialyltransferase”
α2,3 sialyltransferase activity (formation of pyridylaminated α2,3-sialyllactose) [2]: a peak of pyridylaminated α2,3-sialyllactose (pyridylaminated 3′-sialyllactose) was detected | Radioactivity (cpm) Round 1 [3, 5]: 11012 cpm | Radioactivity (cpm) Round 2 [3, 5]: 12056 cpm | Radioactivity (cpm) Average [3, 5]: 11534 cpm | Sialyltransferase activity in crude enzyme solution (in words) [3]: sialyltransferase activity was observed
